# Test results reported in the supplement of paper PMC5998384.
# How the values were obtained:
# HeLa Kyoto [1] = test: solubility in G1/S (NP-40 vs SDS abundance) (log2 ratio); higher = more soluble; details: cell cycle stage: G1/S
# HeLa Kyoto [2] = test: melting temperature (median over replicates), in situ; higher = more thermally stable
# HeLa Kyoto [3] = test: solubility change mitosis vs G1/S (difference of NP-40 vs SDS log2 ratios) (log2 ratio difference); higher = more soluble in mitosis
# HeLa Kyoto [4] = test: thermal stability score vs G1/S (z-score of summed log2 fold changes over temperatures); higher = more thermally stable than in G1/S
# [5] = cell cycle stage: early G1 (4.5 h after nocodazole release)
# 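Throughout, for melting temperature (median over replicates), in situ: HeLa Kyoto cells synchronized by double thymidine or nocodazole block, proteins quantified by TMT10plex mass spectrometry, three independent biological replicates.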
# 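Throughout, for solubility change mitosis vs G1/S (difference of NP-40 vs SDS log2 ratios): synchronized HeLa Kyoto cells (double thymidine block for G1/S, nocodazole release for mitosis), protein amounts in NP-40 versus SDS lysates quantified by mass spectrometry, three biological replicates.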
# 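Throughout, for solubility in G1/S (NP-40 vs SDS abundance): HeLa Kyoto cells arrested at G1/S by double thymidine block, proteins quantified by TMT10plex mass spectrometry in mild NP-40 versus SDS extracts, three biological replicates.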
# 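Throughout, for thermal stability score vs G1/S (z-score of summed log2 fold changes over temperatures): synchronized HeLa Kyoto cells, proteins quantified by TMT10plex mass spectrometry, three biological replicates, mitosis taken 0.5 h after nocodazole release, G1/S directly after double thymidine block.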
# OXCT1, sequence (chain, as listed by the source): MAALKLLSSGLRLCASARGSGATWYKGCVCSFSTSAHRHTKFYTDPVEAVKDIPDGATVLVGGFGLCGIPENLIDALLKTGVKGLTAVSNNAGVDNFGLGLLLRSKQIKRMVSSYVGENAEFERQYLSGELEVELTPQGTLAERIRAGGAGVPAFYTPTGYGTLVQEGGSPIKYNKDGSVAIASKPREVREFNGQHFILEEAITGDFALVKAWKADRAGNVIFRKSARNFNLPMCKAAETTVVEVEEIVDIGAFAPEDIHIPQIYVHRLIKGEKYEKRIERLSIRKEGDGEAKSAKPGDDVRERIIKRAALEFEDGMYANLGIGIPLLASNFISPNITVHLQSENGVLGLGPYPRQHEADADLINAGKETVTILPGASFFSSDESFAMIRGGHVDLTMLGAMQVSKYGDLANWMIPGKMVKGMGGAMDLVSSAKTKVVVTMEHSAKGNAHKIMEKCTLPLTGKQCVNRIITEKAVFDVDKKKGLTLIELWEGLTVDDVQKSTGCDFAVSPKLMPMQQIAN
Substance,solubility in G1/S (log2) (HeLa Kyoto [1]),melting temperature (HeLa Kyoto [2]; cell cycle stage: G1/S) [°C],melting temperature (HeLa Kyoto [2]; cell cycle stage: mitosis) [°C],solubility change mitosis (log2) (HeLa Kyoto [3]),thermal stability score (HeLa Kyoto [4]; [5]),thermal stability score (HeLa Kyoto [4]; cell cycle stage: mitosis)
MAAPGSARRPLLLLLLLLLLGLMHCASAAMFMVKNGNGTACIMANFSAAFSVNYDTKSGPKNMTFDLPSDATVVLNRSSCGKENTSDPSLVIAFGRGHTLTLNFTRNATRYSVQLMSFVYNLSDTHLFPNASSKEIKTVESITDIRADIDKKYRCVSGTQVHMNNVTVTLHDATIQAYLSNSSFSRGETRCEQDRPSPTTAPPAPPSPSPSPVPKSPSVDKYNVSGTNGTCLLASMGLQLNLTYERKDNTTVTRLLNINPNKTSASGSCGAHLVTLELHSEGTTVLLFQFGMNASSSRFFLQGIQLNTILPDARDPAFKAANGSLRALQATVGNSYKCNAEEHVRVTKAFSVNIFKVWVQAFKVEGGQFGSVEECLLDENSMLIPIAVGGALAGLVLIVLIAYLVGRKRSHAGYQTI [LAMP1],0.0646,59.9,61.1,0.0596,-2.35,-3.71
OXCT1,0.23,53,52.8,-0.0718,-1.63,-1.92
MSLFGTTSGFGTSGTSMFGSATTDNHNPMKDIEVTSSPDDSIGCLSFSPPTLPGNFLIAGSWANDVRCWEVQDSGQTIPKAQQMHTGPVLDVCWSDDGSKVFTASCDKTAKMWDLSSNQAIQIAQHDAPVKTIHWIKAPNYSCVMTGSWDKTLKFWDTRSSNPMMVLQLPERCYCADVIYPMAVVATAERGLIVYQLENQPSEFRRIESPLKHQHRCVAIFKDKQNKPTGFALGSIEGRVAIHYINPPNPAKDNFTFKCHRSNGTNTSAPQDIYAVNGIAFHPVHGTLATVGSDGRFSFWDKDARTKLKTSEQLDQPISACCFNHNGNIFAYASSYDWSKGHEFYNPQKKNYIFLRNAAEELKPRNKK [RAE1],-0.0787,49.8,49.1,0.128,-1.34,-0.473
MASSVGNVADSTEPTKRMLSFQGLAELAHREYQAGDFEAAERHCMQLWRQEPDNTGVLLLLSSIHFQCRRLDRSAHFSTLAIKQNPLLAEAYSNLGNVYKERGQLQEAIEHYRHALRLKPDFIDGYINLAAALVAAGDMEGAVQAYVSALQYNPDLYCVRSDLGNLLKALGRLEEAKACYLKAIETQPNFAVAWSNLGCVFNAQGEIWLAIHHFEKAVTLDPNFLDAYINLGNVLKEARIFDRAVAAYLRALSLSPNHAVVHGNLACVYYEQGLIDLAIDTYRRAIELQPHFPDAYCNLANALKEKGSVAEAEDCYNTALRLCPTHADSLNNLANIKREQGNIEEAVRLYRKALEVFPEFAAAHSNLASVLQQQGKLQEALMHYKEAIRISPTFADAYSNMGNTLKEMQDVQGALQCYTRAIQINPAFADAHSNLASIHKDSGNIPEAIASYRTALKLKPDFPDAYCNLAHCLQIVCDWTDYDERMKKLVSIVADQLEKNRLPSVHPHHSMLYPLSHGFRKAIAERHGNLCLDKINVLHKPPYEHPKDLKLSDGRLRVGYVSSDFGNHPTSHLMQSIPGMHNPDKFEVFCYALSPDDGTNFRVKVMAEANHFIDLSQIPCNGKAADRIHQDGIHILVNMNGYTKGARNELFALRPAPIQAMWLGYPGTSGALFMDYIITDQETSPAEVAEQYSEKLAYMPHTFFIGDHANMFPHLKKKAVIDFKSNGHIYDNRIVLNGIDLKAFLDSLPDVKIVKMKCPDGGDNADSSNTALNMPVIPMNTIAEAVIEMINRGQIQITINGFSISNGLATTQINNKAATGEEVPRTIIVTTRSQYGLPEDAIVYCNFNQLYKIDPSTLQMWANILKRVPNSVLWLLRFPAVGEPNIQQYAQNMGLPQNRIIFSPVAPKEEHVRRGQLADVCLDTPLCNGHTTGMDVLWAGTPMVTMPGETLASRVAASQLTCLGCLELIAKNRQEYEDIAVKLGTDLEYLKKVRGKVWKQRISSPLFNTKQYTMELERLYLQMWEHYAAGNKPDHMIKPVEVTESA [OGT],0.302,49.4,50.3,-0.0669,-0.271,1.57
MSHPDYRMNLRPLGTPRGVSAVAGPHDIGASPGDKKSKNRSTRGKKKSIFETYMSKEDVSEGLKRGTLIQGVLRINPKKFHEAFIPSPDGDRDIFIDGVVARNRALNGDLVVVKLLPEEHWKVVKPESNDKETEAAYESDIPEELCGHHLPQQSLKSYNDSPDVIVEAQFDGSDSEDGHGITQNVLVDGVKKLSVCVSEKGREDGDAPVTKDETTCISQDTRALSEKSLQRSAKVVYILEKKHSRAATGFLKLLADKNSELFRKYALFSPSDHRVPRIYVPLKDCPQDFVARPKDYANTLFICRIVDWKEDCNFALGQLAKSLGQAGEIEPETEGILTEYGVDFSDFSSEVLECLPQGLPWTIPPEEFSKRRDLRKDCIFTIDPSTARDLDDALSCKPLADGNFKVGVHIADVSYFVPEGSDLDKVAAERATSVYLVQKVVPMLPRLLCEELCSLNPMSDKLTFSVIWTLTPEGKILDEWFGRTIIRSCTKLSYEHAQSMIESPTEKIPAKELPPISPEHSSEEVHQAVLNLHGIAKQLRQQRFVDGALRLDQLKLAFTLDHETGLPQGCHIYEYRESNKLVEEFMLLANMAVAHKIHRAFPEQALLRRHPPPQTRMLSDLVEFCDQMGLPVDFSSAGALNKSLTQTFGDDKYSLARKEVLTNMCSRPMQMALYFCSGLLQDPAQFRHYALNVPLYTHFTSPIRRFADVLVHRLLAAALGYRERLDMAPDTLQKQADHCNDRRMASKRVQELSTSLFFAVLVKESGPLESEAMVMGILKQAFDVLVLRYGVQKRIYCNALALRSHHFQKVGKKPELTLVWEPEDMEQEPAQQVITIFSLVEVVLQAESTALKYSAILKRPGTQGHLGPEKEEEESDGEPEDSSTS [DIS3L2],-0.0925,50.6,50.5,-0.1,-0.153,-0.198
MDLGAITKYSALHAKPNGLILQYGTAGFRTKAEHLDHVMFRMGLLAVLRSKQTKSTIGVMVTASHNPEEDNGVKLVDPLGEMLAPSWEEHATCLANAEEQDMQRVLIDISEKEAVNLQQDAFVVIGRDTRPSSEKLSQSVIDGVTVLGGQFHDYGLLTTPQLHYMVYCRNTGGRYGKATIEGYYQKLSKAFVELTKQASCSGDEYRSLKVDCANGIGALKLREMEHYFSQGLSVQLFNDGSKGKLNHLCGADFVKSHQKPPQGMEIKSNERCCSFDGDADRIVYYYHDADGHFHLIDGDKIATLISSFLKELLVEIGESLNIGVVQTAYANGSSTRYLEEVMKVPVYCTKTGVKHLHHKAQEFDIGVYFEANGHGTALFSTAVEMKIKQSAEQLEDKKRKAAKMLENIIDLFNQAAGDAISDMLVIEAILALKGLTVQQWDALYTDLPNRQLKVQVADRRVISTTDAERQAVTPPGLQEAINDLVKKYKLSRAFVRPSGTEDVVRVYAEADSQESADHLAHEVSLAVFQLAGGIGERPQPGF [PGM3],0.186,51.4,51.2,-0.0835,-0.282,-0.735
ERH,-2.12,52.5,51.6,0.912,-4.51,-3.17
MDPNTIIEALRGTMDPALREAAERQLNEAHKSLNFVSTLLQITMSEQLDLPVRQAGVIYLKNMITQYWPDRETAPGDISPYTIPEEDRHCIRENIVEAIIHSPELIRVQLTTCIHHIIKHDYPSRWTAIVDKIGFYLQSDNSACWLGILLCLYQLVKNYEYKKPEERSPLVAAMQHFLPVLKDRFIQLLSDQSDQSVLIQKQIFKIFYALVQYTLPLELINQQNLTEWIEILKTVVNRDVPNETLQVEEDDRPELPWWKCKKWALHILARLFERYGSPGNVSKEYNEFAEVFLKAFAVGVQQVLLKVLYQYKEKQYMAPRVLQQTLNYINQGVSHALTWKNLKPHIQGIIQDVIFPLMCYTDADEELWQEDPYEYIRMKFDVFEDFISPTTAAQTLLFTACSKRKEVLQKTMGFCYQILTEPNADPRKKDGALHMIGSLAEILLKKKIYKDQMEYMLQNHVFPLFSSELGYMRARACWVLHYFCEVKFKSDQNLQTALELTRRCLIDDREMPVKVEAAIALQVLISNQEKAKEYITPFIRPVMQALLHIIRETENDDLTNVIQKMICEYSEEVTPIAVEMTQHLAMTFNQVIQTGPDEEGSDDKAVTAMGILNTIDTLLSVVEDHKEITQQLEGICLQVIGTVLQQHVLEFYEEIFSLAHSLTCQQVSPQMWQLLPLVFEVFQQDGFDYFTDMMPLLHNYVTVDTDTLLSDTKYLEMIYSMCKKVLTGVAGEDAECHAAKLLEVIILQCKGRGIDQCIPLFVEAALERLTREVKTSELRTMCLQVAIAALYYNPHLLLNTLENLRFPNNVEPVTNHFITQWLNDVDCFLGLHDRKMCVLGLCALIDMEQIPQVLNQVSGQILPAFILLFNGLKRAYACHAEHENDSDDDDEAEDDDETEELGSDEDDIDEDGQEYLEILAKQAGEDGDDEDWEEDDAEETALEGYSTIIDDEDNPVDEYQIFKAIFQTIQNRNPVWYQALTHGLNEEQRKQLQDIATLADQRRAAHESKMIEKHGGYKFSAPVVPSSFNFGGPAPGMN [IPO7],-0.0648,52.7,51.3,-0.133,1.18,3.75
